From patent US20250340890, “DNA […] AS UNIVERSAL INHIBITORS OF SPIKE PROTEIN/HACE2 INTERACTIONS” (Bowling Green State University, published 2025) come the findings set out here.

Some targets named below: Lysozyme (UniProt P00698 P00698:19-147); SARS-CoV-2 WT spike S1 (SARS-CoV-2, UniProt P0DTC2 P0DTC2:14-685); PD-L1 (UniProt Q9NZQ7 Q9NZQ7:19-238).
Data set [1] deals with Bovine serum albumin (BSA) (Bos taurus, UniProt P02769 P02769:25-607).
The target in data set [2] is SARS-CoV-2 WT spike S1S2 extracellular domain (SARS-CoV-2, UniProt P0DTC2).
The target in data set [3] is SARS-CoV-2 WT spike S2 domain (SARS-CoV-2, UniProt P0DTC2 P0DTC2:686-1213).

Sequence of Bovine serum albumin (BSA) (P02769 25-607, one chain of several): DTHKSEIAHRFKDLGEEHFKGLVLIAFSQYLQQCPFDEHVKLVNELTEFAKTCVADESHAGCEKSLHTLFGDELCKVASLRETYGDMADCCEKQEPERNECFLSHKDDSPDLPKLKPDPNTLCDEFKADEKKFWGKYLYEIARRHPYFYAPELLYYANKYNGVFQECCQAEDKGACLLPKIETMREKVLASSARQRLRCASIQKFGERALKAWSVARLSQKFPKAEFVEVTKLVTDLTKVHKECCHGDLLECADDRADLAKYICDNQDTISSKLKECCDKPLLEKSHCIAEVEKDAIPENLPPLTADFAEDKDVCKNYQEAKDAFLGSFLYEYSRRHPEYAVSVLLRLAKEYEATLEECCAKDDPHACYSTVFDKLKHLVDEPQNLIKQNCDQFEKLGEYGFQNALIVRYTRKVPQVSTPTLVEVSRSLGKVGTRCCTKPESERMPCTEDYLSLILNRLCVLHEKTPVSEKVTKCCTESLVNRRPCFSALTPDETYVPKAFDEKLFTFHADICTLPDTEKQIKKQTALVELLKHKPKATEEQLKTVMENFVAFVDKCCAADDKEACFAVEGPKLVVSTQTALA
Sequence of PD-L1 (Q9NZQ7 19-238, one chain of several): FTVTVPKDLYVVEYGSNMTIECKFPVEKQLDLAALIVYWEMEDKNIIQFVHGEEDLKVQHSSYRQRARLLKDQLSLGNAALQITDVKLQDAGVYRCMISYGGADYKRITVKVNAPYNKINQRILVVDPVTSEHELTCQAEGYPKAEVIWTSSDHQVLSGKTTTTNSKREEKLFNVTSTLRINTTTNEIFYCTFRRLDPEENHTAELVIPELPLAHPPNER
Sequence of Lysozyme (P00698 19-147, one chain of several): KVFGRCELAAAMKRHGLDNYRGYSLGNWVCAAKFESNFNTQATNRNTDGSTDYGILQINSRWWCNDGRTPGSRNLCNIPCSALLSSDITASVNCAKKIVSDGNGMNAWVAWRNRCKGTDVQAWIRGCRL

B1: S2A2C1 (ssDNA)
DNA: AGGCGGGTTCCTAGACTTGTACTCAGCCT
Consider B1, for which the binding result (in the data set with Lysozyme; in the data set with SARS-CoV-2 WT spike S1; in the data set with PD-L1; in data set [1]) was “no binding” each time.

B2: S2A1 (ssDNA)
DNA: CAAGGAGCGACCAGAGGGGCGGTTTATCAACAACTCGCTCTGTACACCACTCTTTGTTGGCATCCTTCAGCCC
For B2, the binding result in data set [2] is recorded as “binds”.

B3: S2A2C3 (ssDNA)
DNA: CAAGGAGCGACCAGAGGCGGGTTCCTAGACTTGTACTCAGCCT
Regarding B3, the binding result in data set [3] is on record as “binds”.

B4: S2A2 (ssDNA)
DNA: CAAGGAGCGACCAGAGGCGGGTTCCTAGACTTGTACTCAGCCTTTACAGCTATGCCCTGGCATCCTTCAGCCC
For the molecule B4, the binding result in data set [2] is listed as “binds”.

B5: S2A1C1 (ssDNA)
DNA: CAAGGAGCGACCAGAGGGGCGGTTTATCAACAACTCGCTCTGTACACCACTCTTTG
B5: the binding result in data set [3] was “binds”.

B6: A1C1 (ssDNA)
DNA: CGGGACGACGACGGACATCGTGAGAAATGGTCGACCTTGTGTCTGTCGTCCCG
As to B6, the binding result in data set [1] was “no binding”.
